Measured values as given in IntAct's records for PubMed 19293378.

B1: Apoptosis regulator BHRF1 (Epstein-Barr virus (strain B95-8) (HHV-4)), P03182 (parent)
chain: MAYSTREILLALCIRDSRVHGNGTLHPVLELAARETPLRLSPEDTVVLRYHVLLEEIIERNSETFTETWNRFITHTEHVDLDFNSVFLEIFHRGDPSLGRALAWMAWCMHACRTLCCNQSTPYYVVDLSVRGMLEASEGLDGWIHQQGGWSTLIEDNIPGSRRFSWTLFLAGLTLSLLVICSYLFISRGRH
partner: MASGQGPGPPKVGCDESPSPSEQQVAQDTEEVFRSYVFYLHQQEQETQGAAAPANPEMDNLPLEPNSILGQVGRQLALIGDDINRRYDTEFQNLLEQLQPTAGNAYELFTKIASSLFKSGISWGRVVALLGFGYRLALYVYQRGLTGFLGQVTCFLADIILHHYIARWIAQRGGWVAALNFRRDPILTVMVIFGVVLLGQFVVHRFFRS
B2: Apoptosis regulator BHRF1 (Epstein-Barr virus (strain B95-8) (HHV-4)), P03182 (parent)
chain: B1 chain

Variants of: B1
Conditions: with bak_mouse Bak1, O08734

Variant | effect of a mutation on the interaction
R100A | decreasing interaction strength
G99A | decreasing interaction strength
L98A | decreasing interaction strength
L98A;G99A;R100A | disrupting interaction strength

Variants of: B2
Conditions: with Bcl2l11, O54918
Sequence of Bcl2l11, O54918 (O54918 whole entry): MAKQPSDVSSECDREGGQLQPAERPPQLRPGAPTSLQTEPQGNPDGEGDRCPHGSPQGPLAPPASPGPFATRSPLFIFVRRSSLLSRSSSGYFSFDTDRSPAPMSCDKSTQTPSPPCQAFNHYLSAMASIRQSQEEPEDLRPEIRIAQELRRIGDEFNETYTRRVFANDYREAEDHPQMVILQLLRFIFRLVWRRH

Variant | effect of a mutation on the interaction
G99A | decreasing interaction strength
